Laboratory results reported in article PMC4768041.

How the values were obtained:
Experiment in all cases: SPR
Conditions in all cases: BIACORE 3000, RsmA-His6 (961 RU) on NTA chip; running buffer 10 mM Tris-HCl pH 7.5, 150 mM NaCl, 0.05% Tween (v/v), 1 mM [text truncated]; solutions degassed …
[1] = tested on: RsmA-His6 (Pseudomonas aeruginosa)
[2] = tested on: RsmA-His6 (Pseudomonas aeruginosa); remark: listed apart in the source
[3] = tested on: RsmA-His6 (Pseudomonas aeruginosa); remark: listed apart in the source

Substance cupA1 leader RNA has a binding signal (% lower RU than rsmZ RNA) [1] of 67, a binding signal (% lower RU than rsmZ RNA) [2] of 59 and a binding signal (% lower RU than rsmZ RNA) [3] of 50.
